Results published in patent US20120172295A1.
Non-standard residues stand in square brackets, D forms with d. No end group written: not given here. *: point of attachment. Palmitoyl = CCCCCCCCCCCCCCCC(=O)*; Myristoyl = CCCCCCCCCCCCCC(=O)*; Aib = CC(C)(N)C(=O)O

T1: GIP receptor, P48546
T1 chain: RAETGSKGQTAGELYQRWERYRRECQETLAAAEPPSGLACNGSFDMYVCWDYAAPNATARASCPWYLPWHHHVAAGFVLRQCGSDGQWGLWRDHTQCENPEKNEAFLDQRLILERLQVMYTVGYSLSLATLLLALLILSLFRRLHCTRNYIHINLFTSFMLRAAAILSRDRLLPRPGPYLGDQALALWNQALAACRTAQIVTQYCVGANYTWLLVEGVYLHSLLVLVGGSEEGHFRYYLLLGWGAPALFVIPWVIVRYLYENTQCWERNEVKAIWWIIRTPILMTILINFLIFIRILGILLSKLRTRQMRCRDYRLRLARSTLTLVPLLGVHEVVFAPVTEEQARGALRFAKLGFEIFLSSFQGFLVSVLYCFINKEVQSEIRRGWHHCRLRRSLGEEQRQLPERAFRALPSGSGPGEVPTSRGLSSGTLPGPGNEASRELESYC

T2: GLP-1 receptor, P43220
T2 chain: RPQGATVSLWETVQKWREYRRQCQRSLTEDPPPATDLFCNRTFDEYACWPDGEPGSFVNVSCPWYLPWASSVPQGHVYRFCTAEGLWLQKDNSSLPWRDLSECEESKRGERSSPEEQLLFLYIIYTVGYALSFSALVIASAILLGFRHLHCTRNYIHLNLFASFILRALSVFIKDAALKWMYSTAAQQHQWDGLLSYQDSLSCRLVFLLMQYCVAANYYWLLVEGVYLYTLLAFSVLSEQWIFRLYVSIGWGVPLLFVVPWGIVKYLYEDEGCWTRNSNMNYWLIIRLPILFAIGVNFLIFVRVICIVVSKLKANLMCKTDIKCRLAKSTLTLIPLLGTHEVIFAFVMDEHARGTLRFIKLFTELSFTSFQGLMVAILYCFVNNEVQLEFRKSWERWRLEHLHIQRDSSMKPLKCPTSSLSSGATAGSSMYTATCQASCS


Key:
Assay in all cases: cell-based or functional assay
GIP receptor, P48546 = biological target: T1, GIP receptor, P48546
GLP-1 receptor, P43220 = biological target: T2, GLP-1 receptor, P43220
[1] = biological target: glucagon receptor, P47871
Sequence of glucagon receptor, P47871 (P47871 26-477 limits assumed): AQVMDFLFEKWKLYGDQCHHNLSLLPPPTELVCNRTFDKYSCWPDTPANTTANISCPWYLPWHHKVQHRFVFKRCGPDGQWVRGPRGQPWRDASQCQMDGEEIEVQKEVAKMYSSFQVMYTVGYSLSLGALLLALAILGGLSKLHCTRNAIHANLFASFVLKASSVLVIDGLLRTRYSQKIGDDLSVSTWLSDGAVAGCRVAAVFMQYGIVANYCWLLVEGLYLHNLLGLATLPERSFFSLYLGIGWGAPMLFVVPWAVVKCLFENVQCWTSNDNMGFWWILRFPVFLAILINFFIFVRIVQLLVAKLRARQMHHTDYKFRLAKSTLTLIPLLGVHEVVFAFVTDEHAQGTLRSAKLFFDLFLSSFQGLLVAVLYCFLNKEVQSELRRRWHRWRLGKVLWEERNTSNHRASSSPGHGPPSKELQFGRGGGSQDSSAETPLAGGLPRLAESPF

Binder | % relative activity (GIP receptor, P48546) [%] | EC50 (GIP receptor, P48546) [nM] | % relative activity (GLP-1 receptor, P43220) [%] | EC50 (GLP-1 receptor, P43220) [nM] | % relative activity [1] [%] | EC50 [1] [nM]
H[Aib]QGTFTSDYSKYLDEQAAKEFICWLMNGGPSSGAPPPSK-NH2 (N-terminus assumed; SMILES CC[C@H](C)[C@H](NC(=O)[C@H](Cc1ccccc1)NC(=O)[C@H](CCC(=O)O)NC(=O)[C@H](CCCCN)NC(=O)[C@H](C)NC(=O)[C@H](C)NC(=O)[C@H](CCC(N)=O)NC(=O)[C@H](CCC(=O)O)NC(=O)[C@H](CC(=O)O)NC(=O)[C@H](CC(C)C)NC(=O)[C@H](Cc1ccc(O)cc1)NC(=O)[C@H](CCCCN)NC(=O)[C@H](CO)NC(=O)[C@H](Cc1ccc(O)cc1)NC(=O)[C@H](CC(=O)O)NC(=O)[C@H](CO)NC(=O)[C@@H](NC(=O)[C@H](Cc1ccccc1)NC(=O)[C@@H](NC(=O)CNC(=O)[C@H](CCC(N)=O)NC(=O)C(C)(C)NC(=O)[C@@H](N)Cc1c[nH]cn1)[C@@H](C)O)[C@@H](C)O)C(=O)N[C@@H](CS)C(=O)N[C@@H](Cc1c[nH]c2ccccc12)C(=O)N[C@@H](CC(C)C)C(=O)N[C@@H](CCSC)C(=O)N[C@@H](CC(N)=O)C(=O)NCC(=O)NCC(=O)N1CCC[C@H]1C(=O)N[C@@H](CO)C(=O)N[C@@H](CO)C(=O)NCC(=O)N[C@@H](C)C(=O)N1CCC[C@H]1C(=O)N1CCC[C@H]1C(=O)N1CCC[C@H]1C(=O)N[C@@H](CO)C(=O)N[C@@H](CCCCN)C(N)=O) [mt-346] | 0.34 | 0.796 | 367 | 0.0015 | 3.7 | 0.954
H[Aib]QGTFTSDYSIYLD[Aib]QAAKEFVNWLMNGGPSSGAPPPSK-NH2 (N-terminus assumed; SMILES CC[C@H](C)[C@H](NC(=O)[C@H](CO)NC(=O)[C@H](Cc1ccc(O)cc1)NC(=O)[C@H](CC(=O)O)NC(=O)[C@H](CO)NC(=O)[C@@H](NC(=O)[C@H](Cc1ccccc1)NC(=O)[C@@H](NC(=O)CNC(=O)[C@H](CCC(N)=O)NC(=O)C(C)(C)NC(=O)[C@@H](N)Cc1c[nH]cn1)[C@@H](C)O)[C@@H](C)O)C(=O)N[C@@H](Cc1ccc(O)cc1)C(=O)N[C@@H](CC(C)C)C(=O)N[C@@H](CC(=O)O)C(=O)NC(C)(C)C(=O)N[C@@H](CCC(N)=O)C(=O)N[C@@H](C)C(=O)N[C@@H](C)C(=O)N[C@@H](CCCCN)C(=O)N[C@@H](CCC(=O)O)C(=O)N[C@@H](Cc1ccccc1)C(=O)N[C@H](C(=O)N[C@@H](CC(N)=O)C(=O)N[C@@H](Cc1c[nH]c2ccccc12)C(=O)N[C@@H](CC(C)C)C(=O)N[C@@H](CCSC)C(=O)N[C@@H](CC(N)=O)C(=O)NCC(=O)NCC(=O)N1CCC[C@H]1C(=O)N[C@@H](CO)C(=O)N[C@@H](CO)C(=O)NCC(=O)N[C@@H](C)C(=O)N1CCC[C@H]1C(=O)N1CCC[C@H]1C(=O)N1CCC[C@H]1C(=O)N[C@@H](CO)C(=O)N[C@@H](CCCCN)C(N)=O)C(C)C) [mt-361] | 0.29 | 1.05 | 226 | 0.0109 | 3.61 | 1.77
H[Aib]QGTFTSDYSKYLDEQAAKEFIAWLMNGGPSSGAPPPSK-NH2 (N-terminus assumed; SMILES CC[C@H](C)[C@H](NC(=O)[C@H](Cc1ccccc1)NC(=O)[C@H](CCC(=O)O)NC(=O)[C@H](CCCCN)NC(=O)[C@H](C)NC(=O)[C@H](C)NC(=O)[C@H](CCC(N)=O)NC(=O)[C@H](CCC(=O)O)NC(=O)[C@H](CC(=O)O)NC(=O)[C@H](CC(C)C)NC(=O)[C@H](Cc1ccc(O)cc1)NC(=O)[C@H](CCCCN)NC(=O)[C@H](CO)NC(=O)[C@H](Cc1ccc(O)cc1)NC(=O)[C@H](CC(=O)O)NC(=O)[C@H](CO)NC(=O)[C@@H](NC(=O)[C@H](Cc1ccccc1)NC(=O)[C@@H](NC(=O)CNC(=O)[C@H](CCC(N)=O)NC(=O)C(C)(C)NC(=O)[C@@H](N)Cc1c[nH]cn1)[C@@H](C)O)[C@@H](C)O)C(=O)N[C@@H](C)C(=O)N[C@@H](Cc1c[nH]c2ccccc12)C(=O)N[C@@H](CC(C)C)C(=O)N[C@@H](CCSC)C(=O)N[C@@H](CC(N)=O)C(=O)NCC(=O)NCC(=O)N1CCC[C@H]1C(=O)N[C@@H](CO)C(=O)N[C@@H](CO)C(=O)NCC(=O)N[C@@H](C)C(=O)N1CCC[C@H]1C(=O)N1CCC[C@H]1C(=O)N1CCC[C@H]1C(=O)N[C@@H](CO)C(=O)N[C@@H](CCCCN)C(N)=O) [mt-363] | 0.73 | 0.425 | 672 | 0.0037 | 7.76 | 0.823
H[Aib]QGTFTSDYSKYLDEQAAKEFIC(PEG 40 kDa)WLMNGGPSSGAPPPSK(Myristoyl)-NH2 [mt-349] | 0.18 | 1.99 | 286 | 0.0022 | 3.82 | 0.549
H[Aib]QGTFTSDYSIYLD[Aib]QAAKEFVNWLMNGGPSSGAPPPSK(Palmitoyl)-NH2 (N-terminus assumed; SMILES CCCCCCCCCCCCCCCC(=O)NCCCC[C@H](NC(=O)[C@H](CO)NC(=O)[C@@H]1CCCN1C(=O)[C@@H]1CCCN1C(=O)[C@@H]1CCCN1C(=O)[C@H](C)NC(=O)CNC(=O)[C@H](CO)NC(=O)[C@H](CO)NC(=O)[C@@H]1CCCN1C(=O)CNC(=O)CNC(=O)[C@H](CC(N)=O)NC(=O)[C@H](CCSC)NC(=O)[C@H](CC(C)C)NC(=O)[C@H](Cc1c[nH]c2ccccc12)NC(=O)[C@H](CC(N)=O)NC(=O)[C@@H](NC(=O)[C@H](Cc1ccccc1)NC(=O)[C@H](CCC(=O)O)NC(=O)[C@H](CCCCN)NC(=O)[C@H](C)NC(=O)[C@H](C)NC(=O)[C@H](CCC(N)=O)NC(=O)C(C)(C)NC(=O)[C@H](CC(=O)O)NC(=O)[C@H](CC(C)C)NC(=O)[C@H](Cc1ccc(O)cc1)NC(=O)[C@@H](NC(=O)[C@H](CO)NC(=O)[C@H](Cc1ccc(O)cc1)NC(=O)[C@H](CC(=O)O)NC(=O)[C@H](CO)NC(=O)[C@@H](NC(=O)[C@H](Cc1ccccc1)NC(=O)[C@@H](NC(=O)CNC(=O)[C@H](CCC(N)=O)NC(=O)C(C)(C)NC(=O)[C@@H](N)Cc1c[nH]cn1)[C@@H](C)O)[C@@H](C)O)[C@@H](C)CC)C(C)C)C(N)=O) [mt-362] | 3.95 | 0.0782 | 241 | 0.102 | 83.2 | 0.0768
